Consider 21 molecules from patent US4642335A, “Anthracycline compounds bound to hydrophilic polypeptides” (Ajinomoto Co., Inc., priority 1984, dated 1987).

For the assay, the system named is mouse L1210 leukemia. Kind of assay: antitumor activity against mouse L1210 leukemia, life prolongation rate. The assay is classed as in vivo. Particulars: once a day for five days starting 24 hours after tumor cell injection, control survival day = 100%. The protocol: These HB-6 substances were tested for their antitumor activity in terms of mouse L1210 leukemia. L1210 leukemia cells (1×10^5) were abdominally injected to each mouse, and the test sample was administered once a day for consecutive five days, with the first administration being started 24 hours after injection of the tumor cells. The result is summarized in Table 1, in which the antitumor activity of each drug is expressed as life prolongation rate, taking the survival day for the control group as 100%.
These HBW-6 substances were tested for their antitumor activity in terms of mouse L1210 leukemia. L1210 leukemia cells (1×10^5) were abdominally injected to each mouse, and the test sample was administered once a day for consecutive five days, with the first administration being started 24 hours after injection of the tumor cells. The result is summarized in Table 2, in which the antitumor activity of each drug is expressed as life prolongation rate, taking the survival day for the control group as 100%.

As to `CC[C@@]1(O)C[C@H](O[C@H]2C[C@H](N(C)C)[C@H](O[C@H]3C[C@H](O)[C@H](O[C@H]4CCC(=O)[C@H](C)O4)[C@H](C)O3)[C@H](C)O2)c2c(cc3c(c2O)C(=O)c2c(O)cccc2C3=O)[C@H]1C(=O)OC` [Aclacinomycin A, aclacinomycin A, reference compound], the “Life Prolongation Rate” value (dose 2 mg/Kg) is on record as 135%. On the same count and under the same terms, the result for `COc1cccc2c1C(=O)c1c(O)c3c(c(O)c1C2=O)C[C@@](O)(C(=O)CO)C[C@@H]3O[C@H]1C[C@H](N)[C@H](O)[C@H](C)O1` [Adriamycin, adriamycin, reference compound] reads 150%.

B1: HB-10(A): NCS-apoprotein and daunomycin combined at molar ratio 1:1 (conjugate, UniProt P0A3R9 35-147, looked up)
Neocarzinostatin: AAPTATVTPSSGLSDGTVVKVAGAGLQAGTAYDVGQCAWVDTGVLACNPADFSSVTADANGSASTSLTVRRSFEGFLFDGTRWGTVDCTTAACQVGLSDAAGNGPEGVAISFN
modifications: complex with daunomycin, 1:1
Regarding B1, the “Life Prolongation Rate” value (dose 2 mg/Kg) was found to be 250%.

B2: HBW-22(A): NCS-apoprotein and γ-rhodomycin Y bound together, molar ratio 1:1 (conjugate, UniProt P0A3R9 35-147, looked up)
Neocarzinostatin: AAPTATVTPSSGLSDGTVVKVAGAGLQAGTAYDVGQCAWVDTGVLACNPADFSSVTADANGSASTSLTVRRSFEGFLFDGTRWGTVDCTTAACQVGLSDAAGNGPEGVAISFN
modifications: γ-rhodomycin Y conjugate, 1:1
As for B2, the “Life Prolongation Rate” value (dose 1 mg/Kg) amounted to 158%.

B3: HB-18(B): NCS-apoprotein and cosmomycin A bound together, molar ratio 1:5 (conjugate, UniProt P0A3R9 35-147, looked up)
Neocarzinostatin: AAPTATVTPSSGLSDGTVVKVAGAGLQAGTAYDVGQCAWVDTGVLACNPADFSSVTADANGSASTSLTVRRSFEGFLFDGTRWGTVDCTTAACQVGLSDAAGNGPEGVAISFN
modifications: cosmomycin A conjugate, 1:5
On to B3, for which the “Life Prolongation Rate” value (dose 2 mg/Kg) amounted to 170%.

B4: HBW-10(B): NCS-apoprotein and daunomycin bound through hydrogen bond and/or hydrophobic bond, molar ratio 1:5 (conjugate, UniProt P0A3R9 35-147, looked up)
Neocarzinostatin: AAPTATVTPSSGLSDGTVVKVAGAGLQAGTAYDVGQCAWVDTGVLACNPADFSSVTADANGSASTSLTVRRSFEGFLFDGTRWGTVDCTTAACQVGLSDAAGNGPEGVAISFN
modifications: noncovalent complex with daunomycin, 1:5
With B4, the “Life Prolongation Rate” value (dose 1 mg/Kg) was determined as 270%.

B5: HB-10(C): NCS-apoprotein and daunomycin combined at molar ratio 2:1 (conjugate, UniProt P0A3R9 35-147, looked up)
Neocarzinostatin: AAPTATVTPSSGLSDGTVVKVAGAGLQAGTAYDVGQCAWVDTGVLACNPADFSSVTADANGSASTSLTVRRSFEGFLFDGTRWGTVDCTTAACQVGLSDAAGNGPEGVAISFN
modifications: daunomycin conjugate, 2:1
B5: for the setting “dose 2 mg/Kg”, the “Life Prolongation Rate” value is on record as 230%.

B6: HBW-18(A): NCS-apoprotein and cosmomycin A bound together, molar ratio 1:1 (conjugate, UniProt P0A3R9 35-147, looked up)
Neocarzinostatin: AAPTATVTPSSGLSDGTVVKVAGAGLQAGTAYDVGQCAWVDTGVLACNPADFSSVTADANGSASTSLTVRRSFEGFLFDGTRWGTVDCTTAACQVGLSDAAGNGPEGVAISFN
modifications: complex with cosmomycin A, 1:1
B6: the “Life Prolongation Rate” value (dose 1 mg/Kg) is listed as 170%.

B7: HB-22(B): NCS-apoprotein and γ-rhodomycin Y bound together, molar ratio 1:5 (conjugate, UniProt P0A3R9 35-147, looked up)
Neocarzinostatin: AAPTATVTPSSGLSDGTVVKVAGAGLQAGTAYDVGQCAWVDTGVLACNPADFSSVTADANGSASTSLTVRRSFEGFLFDGTRWGTVDCTTAACQVGLSDAAGNGPEGVAISFN
modifications: γ-rhodomycin Y conjugate, 1:5
As to B7, the “Life Prolongation Rate” value (dose 1 mg/Kg) was 150%.

B8: HBW-20(A): NCS-apoprotein and adriamycin bound together, molar ratio 1:1 (conjugate, UniProt P0A3R9 35-147, looked up)
Neocarzinostatin: AAPTATVTPSSGLSDGTVVKVAGAGLQAGTAYDVGQCAWVDTGVLACNPADFSSVTADANGSASTSLTVRRSFEGFLFDGTRWGTVDCTTAACQVGLSDAAGNGPEGVAISFN
modifications: noncovalent complex with adriamycin, 1:1
As for B8, the “Life Prolongation Rate” value (dose 1 mg/Kg) was 268%.

B9: HB-10(D): NCS-apoprotein and daunomycin combined at molar ratio 4:1 (conjugate, UniProt P0A3R9 35-147, looked up)
Neocarzinostatin: AAPTATVTPSSGLSDGTVVKVAGAGLQAGTAYDVGQCAWVDTGVLACNPADFSSVTADANGSASTSLTVRRSFEGFLFDGTRWGTVDCTTAACQVGLSDAAGNGPEGVAISFN
modifications: complex with daunomycin, 4:1
Take B9: the “Life Prolongation Rate” value (dose 2 mg/Kg) is given as 200%.

B10: HBW-20(B): NCS-apoprotein and adriamycin bound together, molar ratio 1:5 (conjugate, UniProt P0A3R9 35-147, looked up)
Neocarzinostatin: AAPTATVTPSSGLSDGTVVKVAGAGLQAGTAYDVGQCAWVDTGVLACNPADFSSVTADANGSASTSLTVRRSFEGFLFDGTRWGTVDCTTAACQVGLSDAAGNGPEGVAISFN
modifications: adriamycin conjugate, 1:5
In the case of B10, the “Life Prolongation Rate” value (dose 1 mg/Kg) amounted to 245%.

B11: HB-18(A): NCS-apoprotein and cosmomycin A bound together, molar ratio 1:1 (conjugate, UniProt P0A3R9 35-147, looked up)
Neocarzinostatin: AAPTATVTPSSGLSDGTVVKVAGAGLQAGTAYDVGQCAWVDTGVLACNPADFSSVTADANGSASTSLTVRRSFEGFLFDGTRWGTVDCTTAACQVGLSDAAGNGPEGVAISFN
modifications: cosmomycin A conjugate, 1:1
In the case of B11, for the setting “dose 2 mg/Kg”, the “Life Prolongation Rate” value is on record as 168%.

B12: HB-21(A): NCS-apoprotein and aclacinomycin A bound together, molar ratio 1:1 (conjugate, UniProt P0A3R9 35-147, looked up)
Neocarzinostatin: AAPTATVTPSSGLSDGTVVKVAGAGLQAGTAYDVGQCAWVDTGVLACNPADFSSVTADANGSASTSLTVRRSFEGFLFDGTRWGTVDCTTAACQVGLSDAAGNGPEGVAISFN
modifications: complex with aclacinomycin A, 1:1
In the case of B12, the “Life Prolongation Rate” value (dose 2 mg/Kg) worked out at 142%.

B13: HBW-22(B): NCS-apoprotein and γ-rhodomycin Y bound together, molar ratio 1:5 (conjugate, UniProt P0A3R9 35-147, looked up)
Neocarzinostatin: AAPTATVTPSSGLSDGTVVKVAGAGLQAGTAYDVGQCAWVDTGVLACNPADFSSVTADANGSASTSLTVRRSFEGFLFDGTRWGTVDCTTAACQVGLSDAAGNGPEGVAISFN
modifications: complex with gamma-rhodomycin Y, 1:5
In the case of B13, the “Life Prolongation Rate” value (dose 1 mg/Kg) was 162%.

B14: HB-20(B): NCS-apoprotein and adriamycin bound together, molar ratio 1:5 (conjugate, UniProt P0A3R9 35-147, looked up)
Neocarzinostatin: AAPTATVTPSSGLSDGTVVKVAGAGLQAGTAYDVGQCAWVDTGVLACNPADFSSVTADANGSASTSLTVRRSFEGFLFDGTRWGTVDCTTAACQVGLSDAAGNGPEGVAISFN
modifications: complex with adriamycin, 1:5
B14: the “Life Prolongation Rate” value (dose 2 mg/Kg) is listed as 205%.

B15: HB-20(A): NCS-apoprotein and adriamycin bound together, molar ratio 1:1 (conjugate, UniProt P0A3R9 35-147, looked up)
Neocarzinostatin: AAPTATVTPSSGLSDGTVVKVAGAGLQAGTAYDVGQCAWVDTGVLACNPADFSSVTADANGSASTSLTVRRSFEGFLFDGTRWGTVDCTTAACQVGLSDAAGNGPEGVAISFN
modifications: complex with adriamycin, 1:1
With B15, under “dose 2 mg/Kg”, the “Life Prolongation Rate” value is on record as 200%.

B16: HBW-18(B): NCS-apoprotein and cosmomycin A bound together, molar ratio 1:5 (conjugate, UniProt P0A3R9 35-147, looked up)
Neocarzinostatin: AAPTATVTPSSGLSDGTVVKVAGAGLQAGTAYDVGQCAWVDTGVLACNPADFSSVTADANGSASTSLTVRRSFEGFLFDGTRWGTVDCTTAACQVGLSDAAGNGPEGVAISFN
modifications: complex with cosmomycin A, 1:5
For B16, the “Life Prolongation Rate” value (dose 1 mg/Kg) is recorded as 175%.

B17: HB-22(A): NCS-apoprotein and γ-rhodomycin Y bound together, molar ratio 1:1 (conjugate, UniProt P0A3R9 35-147, looked up)
Neocarzinostatin: AAPTATVTPSSGLSDGTVVKVAGAGLQAGTAYDVGQCAWVDTGVLACNPADFSSVTADANGSASTSLTVRRSFEGFLFDGTRWGTVDCTTAACQVGLSDAAGNGPEGVAISFN
modifications: complex with gamma-rhodomycin Y, 1:1
B17: where the note is “dose 1 mg/Kg”, the “Life Prolongation Rate” value was found to be 145%.

B18: HB-21(B): NCS-apoprotein and aclacinomycin A bound together, molar ratio 1:5 (conjugate, UniProt P0A3R9 35-147, looked up)
Neocarzinostatin: AAPTATVTPSSGLSDGTVVKVAGAGLQAGTAYDVGQCAWVDTGVLACNPADFSSVTADANGSASTSLTVRRSFEGFLFDGTRWGTVDCTTAACQVGLSDAAGNGPEGVAISFN
modifications: aclacinomycin A conjugate, 1:5
B18: the “Life Prolongation Rate” value (dose 2 mg/Kg) stood at 145%.

B19: HB-10(B): NCS-apoprotein and daunomycin combined at molar ratio 1:10 (conjugate, UniProt P0A3R9 35-147, looked up)
Neocarzinostatin: AAPTATVTPSSGLSDGTVVKVAGAGLQAGTAYDVGQCAWVDTGVLACNPADFSSVTADANGSASTSLTVRRSFEGFLFDGTRWGTVDCTTAACQVGLSDAAGNGPEGVAISFN
modifications: daunomycin conjugate, 1:10
Take B19: the “Life Prolongation Rate” value (dose 2 mg/Kg) was 265%.
